For the test, the target named is T1, human TMEM192 with a C-terminally fused HA epitope (human), Q8IY95.
T1 chain: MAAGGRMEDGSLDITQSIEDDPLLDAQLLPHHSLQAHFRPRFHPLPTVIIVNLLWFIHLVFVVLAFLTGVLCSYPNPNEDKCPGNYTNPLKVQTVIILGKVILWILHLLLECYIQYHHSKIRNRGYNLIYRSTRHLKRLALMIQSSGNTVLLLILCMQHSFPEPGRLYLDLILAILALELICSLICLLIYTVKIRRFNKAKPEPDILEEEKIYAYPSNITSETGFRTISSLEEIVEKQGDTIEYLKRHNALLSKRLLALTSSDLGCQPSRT
Briefly: non-reducing SDS-PAGE and Western blot; total lysates of transiently transfected HeLa cells denatured 5 min at 95°C in the absence of DTT; detection with anti-HA antibody 3F10; shows only disulphide-linked dimers. The following applies: remark: other sources report otherwise.

The values below come from paper PMC5546430.

B1: human TMEM192 with a C-terminally fused HA epitope, Q8IY95 1-271 (natural protein)
chain: MAAGGRMEDGSLDITQSIEDDPLLDAQLLPHHSLQAHFRPRFHPLPTVIIVNLLWFIHLVFVVLAFLTGVLCSYPNPNEDKCPGNYTNPLKVQTVIILGKVILWILHLLLECYIQYHHSKIRNRGYNLIYRSTRHLKRLALMIQSSGNTVLLLILCMQHSFPEPGRLYLDLILAILALELICSLICLLIYTVKIRRFNKAKPEPDILEEEKIYAYPSNITSETGFRTISSLEEIVEKQGDTIEYLKRHNALLSKRLLALTSSDLGCQPSRT
Regarding B1, the stoichiometry N was found to be 2.
